For orientation: Km means the substrate concentration at which the rate is half of its maximum. As a reminder, the Vmax is the rate approached at saturating substrate.

Here are results for three proteins from publication PMC12074421, “Development and Characterization of pFluor50, a Fluorogenic-Based Kinetic Assay System for High-Throughput Inhibition Screening and Characterization of Time-Dependent Inhibition and Inhibition Type for Six Human CYPs” (Molecules, 2025).

Common to all, as to assay type: in vitro ADME, human
Details in all cases: pH 7.4

Substrate in series [1]: COc1ccc2c(-c3ccccc3C(=O)O)c3ccc(=O)cc-3oc2c1
Briefly: pFluor50 Michaelis–Menten kinetics, CYP2C19 with 3OMF. The procedure: (§1) In general, the protocol for determination of the Michaelis–Menten kinetic parameters (KM and Vmax) involved addition of the appropriate master mix to phosphate buffer followed by addition of the appropriate amount of enzyme to the mix. The master mix was determined for each specific CPY450 based on empirical methods involving each reagent to obtain a linear range of enzyme activity. A total of 30 µL of this enzyme mix was then added to each well of the 384-well plate. Next, initial background readings were taken for 5 min, after which the appropriate amount of substrate was dispensed into each well using the onboard reagent dispenser of the plate reader. All plates contained one blank well without enzyme (only master mix) for each substrate concentration. […] Table 1 provides the formulation of the master mix for each CYP, the kinetic read time with substrate, the read time interval, the concentration range of the substrate used for the Michaelis–Menten kinetics, the Ex and Em wavelengths, and the concentration of substrate for inhibition/activation screening. Table S1 details the specific parameters used for the plate reader for each CYP–substrate pair.
For determining the Michaelis–Menten kinetic parameters (KM and Vmax) for each CYP–substrate pair, kinetic studies were performed in which a range of different concentrations of the substrate were used. […] For each CYP–substrate pair, plate reader parameters were set up as described in Table S1. […] Briefly, the working solution was prepared for each substrate and then primed into one of the dispensers on the plate reader. […] The amount of CYPexpress reagent in units/(mg/mL) was determined for each enzyme as new lots may have slightly different activities, and the activity of the reagent may change over time. The appropriate mass of each CYPexpress^TM reagent needed to obtain the required units was measured using an analytical balance and was transferred to the master mix solution. […] The plate was then transferred to the plate reader and readings were taken at the time intervals, for the appropriate length of time, and at the appropriate wavelengths as specified in Table 1.
Calibration curves were constructed using the determined plate reader settings (Figure S3) and concentrations of the products formed to allow for the calculation of product formation rates based on the observed fluorescence. For these calculations, we presumed that the total increase in observed fluorescence over time was due only to product formation. Calibration curves were generated with 6 different concentrations of the products (fluorescein and resorufin), which spanned the relative fluorescence units (RFU) observed during the kinetic experiments. […]

Substrate in series [2]: CCOc1ccc2nc3ccc(=O)cc-3oc2c1
Briefly: pFluor50 Michaelis–Menten kinetics, CYP2C9 with Eres. The procedure: as §1
For determining the Michaelis–Menten kinetic parameters (KM and Vmax) for each CYP–substrate pair, kinetic studies were performed in which a range of different concentrations of the substrate were used. Table 1 details the formulations for the master mix, CYPexpress^TM concentrations, and concentration ranges of each specific substrate. For each CYP–substrate pair, plate reader parameters were set up as described in Table S1. […] Briefly, the working solution was prepared for each substrate and then primed into one of the dispensers on the plate reader. […] The amount of CYPexpress reagent in units/(mg/mL) was determined for each enzyme as new lots may have slightly different activities, and the activity of the reagent may change over time. The appropriate mass of each CYPexpress^TM reagent needed to obtain the required units was measured using an analytical balance and was transferred to the master mix solution. […]

Substrate in series [3]: CCOc1ccc2nc3ccc(=O)cc-3oc2c1
Briefly: pFluor50 Michaelis–Menten kinetics, CYP1A2 with Eres. How it is done:
as §1
For determining the Michaelis–Menten kinetic parameters (KM and Vmax) for each CYP–substrate pair, kinetic studies were performed in which a range of different concentrations of the substrate were used. Table 1 details the formulations for the master mix, CYPexpress^TM concentrations, and concentration ranges of each specific substrate. For each CYP–substrate pair, plate reader parameters were set up as described in Table S1. The protocol used for Michaelis–Menten kinetics was similar for all the CYPs. Briefly, the working solution was prepared for each substrate and then primed into one of the dispensers on the plate reader. The other dispenser was primed with the buffer solution. 1.5 mL of phosphate buffer solution (pH 7.4) was used to prepare the master mix with the appropriate concentration of each reagent as specified in Table 1 (NADPH, NADP+, G6P, G6PDH, and/or MgCl2). The amount of CYPexpress reagent in units/(mg/mL) was determined for each enzyme as new lots may have slightly different activities, and the activity of the reagent may change over time. The appropriate mass of each CYPexpress^TM reagent needed to obtain the required units was measured using an analytical balance and was transferred to the master mix solution. This solution was mixed, and 30 µL of the solution was added to each well using a multichannel pipette. In each case, a blank control well was also included, as described in Figure S1. The plate was then transferred to the plate reader and readings were taken at the time intervals, for the appropriate length of time, and at the appropriate wavelengths as specified in Table 1.
Calibration curves were constructed using the determined plate reader settings (Figure S3) and concentrations of the products formed to allow for the calculation of product formation rates based on the observed fluorescence. For these calculations, we presumed that the total increase in observed fluorescence over time was due only to product formation. Calibration curves were generated with 6 different concentrations of the products (fluorescein and resorufin), which spanned the relative fluorescence units (RFU) observed during the kinetic experiments. This allowed for the calculation of product concentrations from the observed RFU, enabling the calculation of the product formation rates. Unfortunately, fluorescein benzyl ester (the product formed from the metabolism of dibenzyl fluorescein) is not commercially available. Therefore, the exact rate of formation could not be determined, and the Vmax for CYP3A4 cleavage of dibenzyl fluorescein has been reported as the rate of change in relative fluorescence units (RFUs) per minute.

[4] abbreviates: other: CYP2C19 2 mg/mL, three biological replicates.
[5] abbreviates: other: CYP1A2 1 mg/mL, three biological replicates.
The mark [6] stands for this setting: other: CYP1A2, biological repeat 1.
[7] abbreviates: other: CYP1A2, biological repeat 2.
[8] abbreviates: other: CYP1A2, biological repeat 3.

Values joined by “and” are separate entries in the source; they are usually repeats but may differ in a detail not shown here. Equal entries are not always repeated.

B1: CYP2C19 (Homo sapiens) (protein)
chain: MDPFVVLVLCLSCLLLLSIWRQSSGRGKLPPGPTPLPVIGNILQIDIKDVSKSLTNLSKIYGPVFTLYFGLERMVVLHGYEVVKEALIDLGEEFSGRGHFPLAERANRGFGIVFSNGKRWKEIRRFSLMTLRNFGMGKRSIEDRVQEEARCLVEELRKTKASPCDPTFILGCAPCNVICSIIFQKRFDYKDQQFLNLMEKLNENIRIVSTPWIQICNNFPTIIDYFPGTHNKLLKNLAFMESDILEKVKEHQESMDINNPRDFIDCFLIKMEKEKQNQQSEFTIENLVITAADLLGAGTETTSTTLRYALLLLLKHPEVTAKVQEEIERVIGRNRSPCMQDRGHMPYTDAVVHEVQRYIDLIPTSLPHAVTCDVKFRNYLIPKGTTILTSLTSVLHDNKEFPNPEMFDPRHFLDEGGNFKKSNYFMPFSAGKRICVGEGLARMELFLFLTFILQNFNLKSLIDPKDLDTTPVVNGFASVPPFYQLCFIPV
notes: purchased Sigma Aldrich (CYPexpress, Oxford Biomedical Research, Inc.) MTOXCE2C19
In the case of B1, the Km in series [1] (setting [4]) is 2.3 ± 0.8 µM and 2.31 ± 0.8 µM; in series [1] (other: CYP2C19, biological repeat 1), 3.19 µM; in series [1] (other: CYP2C19, biological repeat 2), 1.42 µM. Further, in series [1] (setting [4]), the Vmax worked out at 0.0182 µmol/min.

B2: CYP2C9 (Homo sapiens) (protein)
chain: MDSLVVLVLCLSCLLLLSLWRQSSGRGKLPPGPTPLPVIGNILQIGIKDISKSLTNLSKVYGPVFTLYFGLKPIVVLHGYEAVKEALIDLGEEFSGRGIFPLAERANRGFGIVFSNGKKWKEIRRFSLMTLRNFGMGKRSIEDRVQEEARCLVEELRKTKASPCDPTFILGCAPCNVICSIIFHKRFDYKDQQFLNLMEKLNENIKILSSPWIQICNNFSPIIDYFPGTHNKLLKNVAFMKSYILEKVKEHQESMDMNNPQDFIDCFLMKMEKEKHNQPSEFTIESLENTAVDLFGAGTETTSTTLRYALLLLLKHPEVTAKVQEEIERVIGRNRSPCMQDRSHMPYTDAVVHEVQRYIDLLPTSLPHAVTCDIKFRNYLIPKGTTILISLTSVLHDNKEFPNPEMFDPHHFLDEGGNFKKSKYFMPFSAGKRICVGEALAGMELFLFLTSILQNFNLKSLVDPKNLDTTPVVNGFASVPPFYQLCFIPV
notes: purchased Sigma Aldrich (CYPexpress, Oxford Biomedical Research, Inc.) MTOXCE2C9
Turning to B2, the Km in series [2] (other: CYP2C9, biological repeat 1) is recorded as 0.46 µM; in series [2] (other: CYP2C9, biological repeat 2) it was 0.52 µM; in series [2] (other: CYP2C9, biological repeat 3), 0.39 µM.

B3: CYP1A2 (Homo sapiens) (protein)
chain: ALSQSVPFSATELLLASAIFCLVFWVLKGLRPRVPKGLKSPPEPWGWPLLGHVLTLGKNPHLALSRMSQRYGDVLQIRIGSTPVLVLSRLDTIRQALVRQGDDFKGRPDLYTSTLITDGQSLTFSTDSGPVWAARRRLAQNALNTFSIASDPASSSSCYLEEHVSKEAKALISRLQELMAGPGHFDPYNQVVVSVANVIGAMCFGQHFPESSDEMLSLVKNTHEFVETASSGNPLDFFPILRYLPNPALQRFKAFNQRFLWFLQKTVQEHYQDFDKNSVRDITGALFKHSKKGPRASGNLIPQEKIVNLVNDIFGAGFDTVTTAISWSLMYLVTKPEIQRKIQKELDTVIGRERRPRLSDRPQLPYLEAFILETFRHSSFLPFTIPHSTTRDTTLNGFYIPKKCCVFVNQWQVNHDPELWEDPSEFRPERFLTADGTAINKPLSEKMMLFGMGKRRCIGEVLAKWEIFLFLAILLQQLEFSVPPGVKVDLTPIYGLTMKHARCEHVQARLRFSIN
notes: purchased Sigma Aldrich (CYPexpress, Oxford Biomedical Research, Inc.) MTOXCE1A2
B3: the Michaelis constant (Km) is listed as 0.35 ± 0.1 µM in series [3] (setting [5]), 0.33 µM in series [3] (setting [6]), 0.225 µM in series [3] (setting [7]) and 0.47 µM in series [3] (setting [8]). The Vmax in series [3] (setting [5]) is 1.61 nmol/min; in series [3] (setting [6]) it was 1.64 nmol/min; in series [3] (setting [7]) it was 1.38 nmol/min; in series [3] (setting [8]) it was 1.82 nmol/min.
